According to US7304146B2, “Fluorogenic kinase assays and substrates” (Applera Corporation, priority 2004, dated 2007):
Where no end group is shown, it is not given here. [ ]: non-standard residue; d: D form. K(dye 2) = not defined here; K(tet) = not defined here; Orn = NCCC[C@H](N)C(=O)O; C12 = C12 group (lipid); C11 = C11 lipid

Assays:
[1] = side chain (imidazole of histidine; cysteine); cited from earlier work
protein kinase Akt3/PKBγ = protein kinase Akt3/PKBγ (Homo sapiens, UniProt Q9Y243); assay: Fluorogenic kinase assay with Akt3/PKBγ, rate of reaction, two vs one hydrophobic moiety; assay type: biochemical; details: compared with one-hydrophobic-moiety substrate C15OOOK(dye2)RPRTSSF-NH2; substrates 8 μM, Akt3/PKBγ 6 nM, ATP 100 μM (FIG. 5)
Procedure: Tet is the fluorescein dye 2′,7′,4,7-tetachloro-5-carboxy fluorescein.
(§1) Kinase assays were performed using Corning 384-well, black, non-binding surface (NBS), microwell plates. Fluorescence was read in real time using a […] Gemini XS plate reader, with excitation and emission set at 500 and 550 respectively. The plate was read every minute for one hour at ambient temperature
Concentrations of dye-labeled peptides were determined by dilution of the purified peptides into dimethylformamide (200 μL) with 1 M NaOH (5 μL) and measuring the absorbance of either 5-carboxy-2′,7′-dipyridyl-sulfonefluorescein (i.e. dye2) at its absorbance maximum (548 nm) or 2′,7′,4,7-tetachloro-5-carboxy fluorescein (i.e. 2′,7′-dichloro-5-carboxy-4,7-dichlorofluorescein or “tet”) at its absorbance maximum (541 nm). The extinction coefficient of both dyes was assumed to be 80,000 cm^−1M^−1.

protein kinase p38βII = protein kinase p38βII (Homo sapiens, UniProt Q15759); assay: Fluorogenic kinase assay with p38βII, rates at varying ATP fitted to Michaelis-Menton equation; assay type: biochemical; details: p38bII 14 nM; 20 mM Tris pH 7.4, MgCl2 5 mM, DTT 5 mM; read 1 hour; read-out: apparent Km of ATP
Text: A comparison of the rates of reaction for a kinase substrate comprising two hydrophobic moieties (i.e. C12OOK(dye 2)RRIPLSPOOK(C12)NH2, (peptide disclosed as SEQ ID NO: 20) used at a concentration of 2 μm and referred to herein as compound 2) versus a kinase substrate comprising a single hydrophobic moiety (i.e.C16OOK(dye 2)[…]2, (peptide disclosed as SEQ ID NO: 20) used at a concentration of 4 μm; and referred to herein as compound 4) for several concentrations of ATP (0, 5, 10, 20, 50, 100, 200, and 500 μM) is shown in FIGS. 4A and 4B. […] The rates of the reaction were fitted to the Michaelis-Menton equation. […]
as §1
Concentrations of dye-labeled peptides were determined by dilution of the purified peptides into dimethylformamide (200 μL) with 1 M NaOH (5 μL) and measuring the absorbance of either 5-carboxy-2′,7′-dipyridyl-sulfonefluorescein (i.e. dye2) at its absorbance maximum (548 nm) or 2′,7′,4,7-tetachloro-5-carboxy fluorescein (i.e. 2′,7′-dichloro-5-carboxy-4,7-dichlorofluorescein or “tet”) at its absorbance maximum (541 nm). […]

Chain of protein kinase p38βII (Q15759 whole entry): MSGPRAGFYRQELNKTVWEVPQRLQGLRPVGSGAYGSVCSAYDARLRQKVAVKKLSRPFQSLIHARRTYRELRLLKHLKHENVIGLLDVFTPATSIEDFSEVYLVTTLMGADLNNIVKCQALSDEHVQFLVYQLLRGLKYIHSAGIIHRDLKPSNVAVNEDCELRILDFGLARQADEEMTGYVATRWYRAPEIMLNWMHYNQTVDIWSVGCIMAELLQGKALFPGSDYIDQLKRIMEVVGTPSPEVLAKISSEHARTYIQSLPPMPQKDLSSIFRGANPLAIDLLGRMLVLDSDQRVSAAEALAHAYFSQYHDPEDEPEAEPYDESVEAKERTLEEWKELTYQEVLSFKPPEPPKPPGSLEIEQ
Chain of protein kinase Akt3/PKBγ (Q9Y243 whole entry): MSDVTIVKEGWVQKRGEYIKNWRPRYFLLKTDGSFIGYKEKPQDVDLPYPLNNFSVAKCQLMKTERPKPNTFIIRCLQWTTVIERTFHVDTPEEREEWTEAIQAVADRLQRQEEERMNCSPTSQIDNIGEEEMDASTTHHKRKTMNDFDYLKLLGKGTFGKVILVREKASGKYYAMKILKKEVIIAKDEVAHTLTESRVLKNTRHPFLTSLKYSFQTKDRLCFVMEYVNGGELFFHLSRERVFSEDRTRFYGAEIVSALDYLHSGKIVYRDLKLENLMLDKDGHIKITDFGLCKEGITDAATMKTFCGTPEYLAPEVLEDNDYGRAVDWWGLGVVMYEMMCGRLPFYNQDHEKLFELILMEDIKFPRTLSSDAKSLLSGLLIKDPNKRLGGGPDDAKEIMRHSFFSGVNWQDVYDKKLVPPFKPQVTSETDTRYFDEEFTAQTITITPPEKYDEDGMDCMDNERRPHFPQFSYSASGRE

Km (protein kinase p38βII)	Compound	further results
–	N[C@@H](Cc1c[nH]cn1)C(=O)O [Histidine (H), Histidine]	pK [1]: about 7
–	C11OOK(tet)ArgProArgThrSerSerPheOOK(C11)NH2 ({C11-Orn-Orn-K(tet)}-RPRTSSF[Orn][Orn]-{K(C11)-NH2}; not fully specified; printed as C11OOK(tet)ArgProArgThrSerSerPheOOK(C11)NH2; reading uncertain) [compound 3, kinase substrate for Akt3/PKBγ with two C11 hydrophobic moieties and tet dye]	signal to noise ratio (protein kinase Akt3/PKBγ): improved signal to noise ratio
90 µM	C12OOK(dye 2)ArgArgIleProLeuSerProOOK(C12)NH2 ({C12-Orn-Orn-K(dye 2)}-RRIPLSP[Orn][Orn]-{K(C12)-NH2}; not fully specified; printed as C12OOK(dye 2)ArgArgIleProLeuSerProOOK(C12)NH2; reading uncertain) [compound 2, kinase substrate for p38βII with two C12 hydrophobic moieties and Dye 2]	–
> 200 µM	C16OOK(dye 2)RRIPLSPNH2 (RRIPLSP-NH2; not fully specified (N-terminus); printed as C16OOK(dye 2)RRIPLSPNH2) [compound 4, comparison kinase substrate with a single hydrophobic moiety]	–
